Results: PMC11246235

Target: CST (FLAG-Ctc1, Stn1, HA-Ten1) purified from HEK293T/17 cells (human) (UniProt Q2NKJ3)
Assay: co-IP

Polα/primase (endogenous), P09884 1-1462; Q14181 1-598; P49642 1-420; P49643 1-509
stoichiometry of Polα/primase to CST: 20%
